According to the supplement of paper PMC10567573:

B1: FBXO34 (parent)
chain: PRYREDPCKQCKKKYVKGDVSLCR
B2: KRT13 (parent)
chain: TPGIDLTRVLAEMREQYEAMAERN

Variants of: B1
Assay: protein stability index of a GFP-peptide fusion (GPS, HEK-293T) (PSI 1-6); higher = more stable
Details: c terminus: a fixed tail appended
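Further: lentivirally expressed fusions sorted by FACS into six bins by GFP to DsRed ratio, PSI derived from sequencing read proportions per bin multiplied by bin number.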

Protein stability index: each site, then its substitutions
Y15: C 2.73 | M 3.11 | F 2.73 | N 2.99 | S 3.07 | Q 2.9 | K 3.49 | H 4.01
P7: K 2.51 | Y 2.44 | Q 2.23 | R 2.31 | T 2.18 | V 2.19 | W 3.07 | N 2.94
K14: T 2.92 | Q 2.59 | M 2.31 | W 2.22 | G 2.48 | N 2.54 | V 2.2
V16: P 3.48 | S 2.93 | R 3.4 | L 2.98 | F 2.22 | G 2.55 | E 2.81 | T 2.74 | C 3.63 | Y 2.65
K17: I 2.21 | V 2.69 | E 2.53 | R 2.59 | Q 2.23 | S 2.19 | H 3.2 | G 2.61 | T 2.67
D19: I 3.18 | V 2.07 | K 3.14 | A 3.15 | S 2.38 | M 2.84 | E 3.31 | N 3.52
R24: E 4.08 | Y 2.87 | T 3.05 | I 2.46 | M 3.09 | Q 3.91 | W 2.27 | L 2.52 | G 3.11 | D 3.82 | P 4.39
C11: W 2.12 | H 3.68 | E 3.91 | R 3.77 | I 3.01 | F 2.12 | G 3.91 | M 3.01
K9: W 2.26 | T 2.66 | I 2.16 | G 2.59 | S 2.51 | Q 2.72 | A 2.53 | E 3.33 | F 2.14 | C 2.35 | V 2.82 | Y 2.6 | R 2.53
L22: D 3.01 | S 3.29 | P 2.41 | M 2.6 | R 3.31 | A 3.12 | H 2.88 | E 3.48 | I 3.12
C8: N 3.86 | A 4.08 | G 4.35 | L 3.71 | W 3.02 | V 3.61 | D 4.16 | K 3.88 | E 4.06 | Q 3.87 | R 3.81
D6: N 1.92 | T 2.61 | P 2.22 | I 2.21 | W 1.98 | G 2.48 | H 2.61 | K 3.06
K13: T 2.58 | Q 2.36 | E 2.69 | N 2.66 | D 2.63 | A 2.51
P1: R 2.96 | W 1.78 | G 2.89 | A 3.11 | D 2.96 | C 2.02 | Q 2.86 | H 2.85 | I 2.34
Q10: K 2.81 | D 2.83 | P 3.13 | G 3.31 | E 2.87 | T 2.78 | A 2.79 | I 2.13
C23: L 3.1 | G 2.88 | V 3.18 | H 3.1 | W 1.85 | N 2.53 | A 2.95
Y3: F 2.93 | C 2.77 | H 2.67 | V 2.28 | E 4 | Q 2.74
R4: E 3.3 | H 2.96 | V 2.77 | P 2.72 | I 2.67 | M 2.61 | W 2.01 | S 2.78 | G 3.25 | Q 2.79
G18: S 2.92 | V 2.46 | R 3.31 | A 2.54 | Q 3.2 | K 2.69 | L 2.25 | T 2.5
R2: E 2.97 | T 2 | K 2.52 | G 3.47 | W 3.25 | S 3.03 | M 2.49 | D 3.03 | P 2.75 | F 2.66
E5: P 2.77 | C 2.7 | I 2.46 | H 2.76 | M 2.66 | R 2.8 | Y 2.51 | W 2.33
V20: K 3.07 | E 2.8 | I 2.64 | C 3.68 | A 2.85 | F 1.93 | W 2.06 | D 3.29 | T 2.52 | L 2.46 | M 2.88 | Y 2.38 | S 3.11
K12: H 2.76 | S 2.54 | R 3.54 | C 1.58 | N 2.39 | M 2.18 | P 3.25 | Y 2.46 | V 2.31
S21: K 2.87 | G 2.54 | E 2.83 | R 2.97 | W 2.16 | L 2.22 | C 4.63 | H 3.53 | D 2.92 | A 3.03

Variants of: B2
Assay: as above
Details: c terminus: a fixed tail appended

Protein stability index, by site and new letter:
T7: N 3.92 | G 3.36 | W 3.28 | L 2.17 | H 3.81 | V 2.81 | I 2.26 | D 4.45 | R 2.8 | F 2.24 | E 4.25 | S 3.07 | P 4.16 | A 3.77 | K 2.88
R8: K 4.69 | H 4.05 | M 4.01 | D 2.73 | L 2.64 | I 3.08 | F 3.13 | A 4.26
L6: V 3.88 | N 5.14 | S 5.29 | I 4.13 | D 3.84 | W 3.09 | T 5.4 | R 4.84 | E 4.69 | C 4.79 | F 3.98 | H 3.99 | G 4.98 | Q 5.01 | Y 3.37 | A 4.15 | K 4.7
I4: Y 3.75 | A 3.97 | H 4.85 | F 3.63 | N 2.62 | P 4.39 | R 4.14 | V 3.8 | K 3.45 | T 3.31 | C 4.87 | S 4.48 | Q 3.72
P2: L 2.86 | T 3.81 | E 3.16 | M 2.97 | V 2.6 | I 2.54 | W 3.75 | C 3.36 | S 3.9 | H 4.41 | Y 3.69 | A 4.17 | N 4.05 | K 3.79 | F 2.79 | D 3.69
D5: F 2.19 | N 3.88 | W 1.72 | S 3.86 | G 1.58 | C 2.73 | T 3.68 | Q 3.8 | P 4.69 | H 4.29 | I 2.66 | V 2.63 | E 4.54 | M 3.81 | K 2.21 | A 5.15
G3: A 3.35 | P 2.67 | L 2.81 | Q 3.23 | I 3.38 | D 3.1 | K 1.99 | T 2.96 | E 2.78 | C 2.63 | V 2.11 | M 2.38 | R 3.39 | F 2.28 | H 3.35 | W 3.37 | Y 2.34 | N 3.12
T1: D 3.47 | K 3.85 | S 3.49 | G 4.59 | H 4.28 | W 3.5 | P 4.16 | F 3.27 | M 3.9 | N 4.26 | L 2.71 | C 3.45 | V 2.67 | Q 3.13 | Y 4.34 | E 4.3 | I 4.36
